The chains are these.
B1: LINE1-full (parent)
chain: UACGUAGGUGGUUUUCCCCUGAUAGUGCUAAGGGGGCCUGGAAGUUUGGACUGGGCAGAGCUCAACACAGCGUGGCAAAGUGGCUGUGGCUAGACUGCCUCUCUGGAUUCCUCGUCACUCAGCAGGGCAUCUCUGAGAGAAAUGCC

In the data set the parent is B1. Briefly: self-cleavage, relative activity (ratio to wild type); higher = more cleavage; in vitro, sequencing; the parent is a self-cleaving ribozyme.
As for A43U A69U, the self-cleavage was 0.05.
In the case of A43G G54A it was 0.41.
In the case of G44A U52C it was 1.32; in that of A42U G82A, 1.38.
In the case of A43U U52A it was 1.04; in that of G44U U109C, 1.31.
Regarding U45A A121U, the self-cleavage came out at 0.99.
In the case of U45A A121C it was 1.62; in that of U45A A121G, 1.88.
Turning to A43G G75U, the self-cleavage was found to be 0.99.
In the case of A42G A94U it was 0.21; in that of A42G A94G, 0.26; in that of U45A A67G, 0.37.
In the case of A42U U47C it was 1.7; in that of A42G C66U, 0.01.
In the case of A43G G114A, the self-cleavage was determined as 1.05.
In the case of A42U U130C it was 1.32; in that of A42G U87A, 0.1; in that of A42G U87C, 0.41.
In the case of G44A U73C it was 1.68.
In the case of A42U U108C it was 1.33.
With U45A G137U, the self-cleavage came out at 1.77.
Turning to A43U A78G, the self-cleavage is 0.61.
In the case of A43U A78C it was 2.35.
In the case of A42G G135A it was 1.69; in that of G44A G89U, 0.02.
In the case of G44A G89C, the self-cleavage was found to be 0.04.
Take A43G U130A: the self-cleavage was determined as 1.51.
Take A43G U130C: the self-cleavage was determined as 1.2.
In the case of U45A A117U it was 0.76; in that of U45A A117G, 1.48; in that of U45C A64G, 0.22.
In the case of A43G G48A it was 1.54; in that of A43C A141U, 1.46; in that of A42U A117G, 1.21.
In the case of A42U A117U it was 1.28.
In the case of A42G A117G, the self-cleavage worked out at 1.71.
Turning to A43G U143A, the self-cleavage was 1.24.
As to A42G G75A, the self-cleavage amounted to 1.14.
In the case of A43U G44A it was 1.61.
In the case of A43U C99U it was 0.2; in that of A42G A43G, 1.17.
Turning to A43G U119A, the self-cleavage is 1.15.
In the case of U45C A65C it was 0.08; in that of G44A A121G, 1.21; in that of A43U G86U, 0.08.
With A42U A92G, the self-cleavage came out at 0.09.
For A42G G93U, the self-cleavage amounted to 0.05.
In the case of A42G G93A it was 0.01; in that of U45A U52C, 1.46.
In the case of A43G U62A it was 0.1; in that of A43G C110U, 1.8.
As to G44A U134C, the self-cleavage is 0.92.
In the case of G44U A107G it was 1.7; in that of G44U A69G, 0.66.
In the case of U45A G114U it was 1.46; in that of A43G G72U, 1.32; in that of A43G U108A, 0.71.
In the case of U45A A142G it was 1.55.
As for A43G A64C, the self-cleavage is 0.2.
On to A42G U112C, for which the self-cleavage was found to be 1.54.
In the case of A43G A59G it was 0.14; in that of G44A U143C, 1.48; in that of A43U U104C, 1.67.
In the case of U45A U87A it was 0.09.
In the case of A43G U81G it was 1.12; in that of A43G U81A, 1.68.
Regarding A43G U46A, the self-cleavage was determined as 1.17.
In the case of A43U A141G it was 1.38.
In the case of U45A U112C it was 1.36.
In the case of U45C A77G it was 2.62; in that of G44U U96G, 0.06.
Turning to A42G A78U, the self-cleavage was found to be 1.66.
In the case of A42U A78G it was 0.88.
In the case of A43G A50C it was 1.73; in that of A43G A50G, 1.24.
In the case of A42U U96C it was 0.06; in that of G44A A138G, 1.55.
For the variant A42U U115A, the self-cleavage was 1.39.
In the case of A42U U115C it was 1.15.
In the case of A42U U115G it was 1.04; in that of A43C U87A, 0.09; in that of A42U A138U, 1.34.
In the case of A43U G105A, the self-cleavage came to 1.21.
In the case of A43G C95U it was 0.16; in that of U45A A141G, 1.06.
For U45C A59G, the self-cleavage worked out at 0.1.
For the variant A43C U109C, the self-cleavage was 0.26.
Regarding A43C U100C, the self-cleavage came to 1.99.
In the case of A42G U91C it was 0.68; in that of G44U A142G, 1.68.
In the case of A43G U102C it was 1.13; in that of A43G U102G, 0.84.
In the case of A43G U102A it was 0.91; in that of A42G U134C, 1.36; in that of A42U U81A, 1.39.
As for A42G U85A, the self-cleavage came to 0.15.
In the case of A43G A77U it was 1.05; in that of G44U U47C, 1.45; in that of A43G A129G, 1.48.
In the case of A43G A129U it was 0.95; in that of A43U U100C, 1.75; in that of A43U U100A, 0.84.
In the case of A43U U115A it was 1.6; in that of A43G U104A, 0.42.
For the variant A43G A78C, the self-cleavage is 1.74.
In the case of U45A U91A it was 0.46.
In the case of A43G A117G it was 0.71.
Turning to A43G A117U, the self-cleavage was 1.93.
In the case of A42U A140G it was 1.29; in that of A42U A140U, 1.05; in that of A43U G122A, 1.02.
In the case of A42G G54C it was 0.84; in that of A42G G54U, 1.06; in that of A42G U104A, 1.13.
Regarding A42G U104C, the self-cleavage is 1.81.
In the case of A43G A138U it was 1.31; in that of A42U C56A, 0.05.
In the case of A43G U134G it was 0.97.
In the case of A43G U134C it was 1.09; in that of A43U C61U, 0.02; in that of A43C G105U, 1.53.
As for A43U U134A, the self-cleavage stood at 1.13.
As to U45A U134C, the self-cleavage turned out to be 1.49.
In the case of U45A U134A it was 1.11; in that of A42G C113U, 1.12; in that of A43G C71U, 0.15.
In the case of A42G U45C it was 1.2.
In the case of A42U U109C it was 0.71; in that of U45A C146U, 1.37; in that of A43G A142G, 1.5.
A42G C51A: the self-cleavage came to 2.3.
In the case of A42U A59G it was 0.12; in that of A43G A79C, 2.63.
In the case of A42G C145G it was 1.14.
In the case of U45A U85A it was 0.06.
Turning to A42G A107G, the self-cleavage turned out to be 1.7.
In the case of A43G G60A it was 0.04; in that of A43G U115G, 1.02; in that of A43G U115C, 1.52.
In the case of A43G U115A it was 0.95; in that of A42G U73C, 1.5; in that of A42G U108A, 0.71.
On to A42G C63U, for which the self-cleavage was 0.4.
In the case of A43G U96C it was 0.09; in that of G44A A64G, 0.33; in that of G44A A64U, 0.4.
As to A42G A64G, the self-cleavage was 0.28.
In the case of A43U A79G it was 0.97.
In the case of A43U A79U it was 2.2.
In the case of A43U C98G it was 0.06; in that of G44A A50G, 0.9; in that of A43G G93U, 0.05.
Consider U45A U62A, for which the self-cleavage came to 0.
In the case of U45A U62C it was 0.03.
In the case of A43G U73G it was 1.56; in that of A42U A107U, 0.92; in that of G44A U46A, 0.79.
In the case of A42G A67U it was 0.17; in that of A43G C128G, 0.77; in that of A43U G60A, 0.05.
Take A43G A94C: the self-cleavage amounted to 0.14.
In the case of A43G A94U it was 0.16.
Regarding A43G U45G, the self-cleavage came out at 1.53.
In the case of A42G A138C it was 0.41.
In the case of A43C U108C it was 1.78; in that of A42U A141G, 0.9.
